One may read the Ki as a measure of affinity in units of concentration, obtained from inhibition or displacement. A lower Ki goes with tighter binding.

One molecule from patent US20190284258A1, “HAEMADIPSA SYLVESTRIS ANTITHROMBOTIC PEPTIDE SYLVESTIN AND USE THEREOF” (priority 2016, published 2019) can be followed below.

The experiment deals with kallikrein. In words: enzyme inhibition kinetics, chromogenic substrate, OD 405 nm.

TSEPVCACPKMLFWVCGKDGETYTHPCIAKCHNVEVEHDGKCK (modifications not checked) [Haemadipsa sylvestris antithrombotic peptide Sylvestin] registered a Ki of 17.8 nM.
